Experimental data from US20210389324.

What was measured:
CFP-SFVp12-YFP 19:6 = molecular target: T1, CFP-SFVp12-YFP 19:6
T1 chain: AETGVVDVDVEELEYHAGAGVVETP

CFP-SFVp12-YFP 11:6 = molecular target: T2, CFP-SFVp12-YFP 11:6
T2 chain: DVEELEYHAGAGVVETP

CFP-FOXG1-YFP = molecular target: T3, CFP-FOXG1-YFP
T3 chain: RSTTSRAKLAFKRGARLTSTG

CFP-SFRP1-YFP = molecular target: T4, CFP-SFRP1-YFP
T4 chain: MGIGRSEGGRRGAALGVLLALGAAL

CFP-SFRP2-YFP = molecular target: T5, CFP-SFRP2-YFP
T5 chain: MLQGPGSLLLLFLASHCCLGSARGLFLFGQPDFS

CFP-SFRP4-YFP = molecular target: T6, CFP-SFRP4-YFP
T6 chain: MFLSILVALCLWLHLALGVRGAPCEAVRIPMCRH

CFP-NT5M-YFP = molecular target: T7, CFP-NT5M-YFP
T7 chain: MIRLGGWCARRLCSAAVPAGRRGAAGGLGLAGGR

Protein | cleavage of CFP-YFP substrate (CFP-SFVp12-YFP 19:6) | cleavage of CFP-YFP substrate (CFP-SFVp12-YFP 11:6) | cleavage of CFP-YFP substrate (CFP-FOXG1-YFP) | cleavage of CFP-YFP substrate (CFP-SFRP1-YFP) | cleavage of CFP-YFP substrate (CFP-SFRP2-YFP) | cleavage of CFP-YFP substrate (CFP-SFRP4-YFP) | cleavage of CFP-YFP substrate (CFP-NT5M-YFP)
Recombinant CHIKV nsP2 protease (protein) SNAFQNKANVCWAKSLVPILETAGIKLNDRQWSQIIQAFKEDKAYSPEVALNEICTRMYGVDLDSGLFSKPLVSVYYADNHWDNRPGGKMFGFNPEAASILERKYPFTKGKWNINKQICVTTRRIEDFNPTTNIIPVNRRLPHSLVAEHRPVKGERMEWLVNKINGHHVLLVSGYNLALPTKRVTWVAPLGVRGADYTYNLELGLPATLGRYDLVVINIHTPFRIHHYQQCVDHAMKLQMLGGDSLRLLKPGGSLLIRAYGYADRTSERVICVLGRKFRSSRALKPPCVTSNTEMFFLFSNFDNGRRNFTTHVMNNQLNAAFVG | CHIKV and VEEV nsP2 cysteine protease | CHIKV and VEEV nsP2 cysteine protease |  |  |  |  | 
Recombinant ZIKV ns2B/ns3 Protease (protein) MGSSHHHHHHSSGLVPRGSHMVDMYIERAGDITWEKDAEVTGNSPRLDVALDESGDFSLVEDDGPPMAGGGGSGGGGSGALWDVPAPKEVKKGETTDGVYRVMTRGLLGSTQVGVGVMQEGVFHTMWHVTKGSALRSGEGRLDPYWGDVKQDLVSYSGPWKLDAAWDGHSEVQLLAVPPGERARNIQTLPGIFKTKDGDIGAVALDYPAGTSGSPILDKSGRVIGLYGNGVVIKNGSYVSAITQGRR |  |  | ZIKV ns2B-ns3 protease | ZIKV ns2B-ns3 protease | Control, not cleaved by ZIKV ns2B-ns3 protease | Control, not cleaved by ZIKV ns2B-ns3 protease | ZIKV ns2B-ns3 protease
